# In paper PMC6992733, “Analysis of the polycystin complex (PCC) in human urinary exosome–like vesicles (ELVs)” (Scientific Reports, 2020):
# Several values for one entry are separate records, joined by “and”; a condition that tells them apart may be missing. Equal values may be shown once.
# Experiments:
# [1] = target: the molecule itself; assay: native gel or EMSA; purified urinary ELVs with 0.2-0.8% SDS, non reducing, incubated on ice 20 min without heating; native gel; western blot
# [2] = target: the molecule itself; assay: SDS-PAGE and western blot; human RCTE cells, PC2 bands on SDS-PAGE western blot read as monomer, dimer and tetramer (Supplemental Fig. 2)
Protein,stoichiometry N [1],stoichiometry N [2]
"polycystin-2 (PC2) of urinary ELVs (natural protein, human (endogenous in urinary ELVs), UniProt Q13563 1-968, looked up, mature post-Golgi N-linked glycosylation (PNGase F sensitive, Endo H resistant), polycystin-2, human, product of PKD2, printed length 968 aa; about 10-13% is cleaved in the C-terminal tail N-terminal to the coiled-coil domain (833..872 aa); also called ELV PC2; source: endogenous, human urinary exosome-like vesicles (ELVs), detergent-solubilised) MVNSSRVQPQQPGDAKRPPAPRAPDPGRLMAGCAAVGASLAAPGGLCEQRGLEIEMQRIRQAAARDPPAGAAASPSPPLSSCSRQAWSRDNPGFEAEEEEEEVEGEEGGMVVEMDVEWRPGSRRSAASSAVSSVGARSRGLGGYHGAGHPSGRRRRREDQGPPCPSPVGGGDPLHRHLPLEGQPPRVAWAERLVRGLRGLWGTRLMEESSTNREKYLKSVLRELVTYLLFLIVLCILTYGMMSSNVYYYTRMMSQLFLDTPVSKTEKTNFKTLSSMEDFWKFTEGSLLDGLYWKMQPSNQTEADNRSFIFYENLLLGVPRIRQLRVRNGSCSIPQDLRDEIKECYDVYSVSSEDRAPFGPRNGTAWIYTSEKDLNGSSHWGIIATYSGAGYYLDLSRTREETAAQVASLKKNVWLDRGTRATFIDFSVYNANINLFCVVRLLVEFPATGGVIPSWQFQPLKLIRYVTTFDFFLAACEIIFCFFIFYYVVEEILEIRIHKLHYFRSFWNCLDVVIVVLSVVAIGINIYRTSNVEVLLQFLEDQNTFPNFEHLAYWQIQFNNIAAVTVFFVWIKLFKFINFNRTMSQLSTTMSRCAKDLFGFAIMFFIIFLAYAQLAYLVFGTQVDDFSTFQECIFTQFRIILGDINFAEIEEANRVLGPIYFTTFVFFMFFILLNMFLAIINDTYSEVKSDLAQQKAEMELSDLIRKGYHKALVKLKLKKNTVDDISESLRQGGGKLNFDELRQDLKGKGHTDAEIEAIFTKYDQDGDQELTEHEHQQMRDDLEKEREDLDLDHSSLPRPMSSRSFPRSLDDSEEDDDEDSGHSSRRRGSISSGVSYEEFQVLVRRVDRMEHSIGSIVSKIDAVIVKLEIMERAKLKRREVLGRLLDGVAEDERLGRDSEIHREQMERLVREELERWESDDAASQISHGLGTPVGLNGQPRPRSSRPSSSQSTEGMEGAGGNGSSNVHV",2,
"polycystin-2 (PC2) of human renal cortical tubular epithelial (RCTE) cells (natural protein, human (endogenous in RCTE cells), UniProt Q13563 1-968, looked up, polycystin-2, human, product of PKD2, printed length 968 aa; also called PC2 from cells; source: endogenous, human RCTE cells) MVNSSRVQPQQPGDAKRPPAPRAPDPGRLMAGCAAVGASLAAPGGLCEQRGLEIEMQRIRQAAARDPPAGAAASPSPPLSSCSRQAWSRDNPGFEAEEEEEEVEGEEGGMVVEMDVEWRPGSRRSAASSAVSSVGARSRGLGGYHGAGHPSGRRRRREDQGPPCPSPVGGGDPLHRHLPLEGQPPRVAWAERLVRGLRGLWGTRLMEESSTNREKYLKSVLRELVTYLLFLIVLCILTYGMMSSNVYYYTRMMSQLFLDTPVSKTEKTNFKTLSSMEDFWKFTEGSLLDGLYWKMQPSNQTEADNRSFIFYENLLLGVPRIRQLRVRNGSCSIPQDLRDEIKECYDVYSVSSEDRAPFGPRNGTAWIYTSEKDLNGSSHWGIIATYSGAGYYLDLSRTREETAAQVASLKKNVWLDRGTRATFIDFSVYNANINLFCVVRLLVEFPATGGVIPSWQFQPLKLIRYVTTFDFFLAACEIIFCFFIFYYVVEEILEIRIHKLHYFRSFWNCLDVVIVVLSVVAIGINIYRTSNVEVLLQFLEDQNTFPNFEHLAYWQIQFNNIAAVTVFFVWIKLFKFINFNRTMSQLSTTMSRCAKDLFGFAIMFFIIFLAYAQLAYLVFGTQVDDFSTFQECIFTQFRIILGDINFAEIEEANRVLGPIYFTTFVFFMFFILLNMFLAIINDTYSEVKSDLAQQKAEMELSDLIRKGYHKALVKLKLKKNTVDDISESLRQGGGKLNFDELRQDLKGKGHTDAEIEAIFTKYDQDGDQELTEHEHQQMRDDLEKEREDLDLDHSSLPRPMSSRSFPRSLDDSEEDDDEDSGHSSRRRGSISSGVSYEEFQVLVRRVDRMEHSIGSIVSKIDAVIVKLEIMERAKLKRREVLGRLLDGVAEDERLGRDSEIHREQMERLVREELERWESDDAASQISHGLGTPVGLNGQPRPRSSRPSSSQSTEGMEGAGGNGSSNVHV",,2 and 4
